{"source": "paper PMC4814140", "target": "Arabidopsis thaliana aquaporin AtTIP2;1 (Arabidopsis thaliana) (UniProt Q41951)", "assay": "crystal structure; AtTIP2;1 solubilised by n-octyl-β-D-glucoside, hanging drop vapor diffusion at room temperature, 50 mM magnesium/sodium acetate pH 5.0, 28% (v/v) PEG 400; space group I 4, 1.18 Å, partial twinning", "data": [{"substance": "Arabidopsis thaliana aquaporin AtTIP2;1 (from UniProt Q41951 2-250) (natural protein)", "values": [{"measurement": "stoichiometry N", "result": 4}]}]}
